According to US20210275653A1:

B1: peptide … (SEQ ID No. 59) (peptide)
peptide: IYPDVTYAF
B2: peptide … (SEQ ID No. 35) (peptide)
peptide: IYTRVTYYL
B3: peptide … (SEQ ID No. 29) (peptide)
peptide: RYGSPINTF
B4: peptide … (SEQ ID No. 32) (peptide)
peptide: PYQLNASLFTF
B5: peptide … (SEQ ID No. 27) (peptide)
peptide: GYLQGLVSF
B6: peptide … (SEQ ID No. 30) (peptide)
peptide: SYSPAHARL
B7: peptide … (SEQ ID No. 41) (peptide)
peptide: RYLQKIEEF
B8: peptide … (SEQ ID No. 58) (peptide)
peptide: GYIDKVRQL
B9: peptide … (SEQ ID No. 25) (peptide)
peptide: IYEPYLAMF
B10: peptide … (SEQ ID No. 34) (peptide)
peptide: AFSPDSHYLLF
B11: peptide … (SEQ ID No. 48) (peptide)
peptide: AWAPKPYHKF
B12: peptide … (SEQ ID No. 56) (peptide)
peptide: LFHPEDTGQVF
B13: peptide … (SEQ ID No. 45) (peptide)
peptide: RYFKTPRKF
B14: peptide … (SEQ ID No. 28) (peptide)
peptide: YYAKEIHKF
B15: peptide … (SEQ ID No. 24) (peptide)
peptide: SYNDALLTF
B16: peptide … (SEQ ID No. 36) (peptide)
peptide: RYMWINQEL
B17: peptide … (SEQ ID No. 26) (peptide)
peptide: RYADDTFTPAF
B18: peptide … (SEQ ID No. 54) (peptide)
peptide: AYSEKVTEF
B19: peptide … (SEQ ID No. 33) (peptide)
peptide: QYGKDFLTL
B20: peptide … (SEQ ID No. 42) (peptide)
peptide: TYIGQGYII
B21: peptide … (SEQ ID No. 44) (peptide)
peptide: VYNTVSEGTHF
B22: peptide … (SEQ ID No. 43) (peptide)
peptide: AYIKNGQLF
B23: peptide … (SEQ ID No. 55) (peptide)
peptide: LYFEKGEYF
B24: peptide … (SEQ ID No. 31) (peptide)
peptide: AYTSPPSFF
B25: peptide … (SEQ ID No. 47) (peptide)
peptide: SYTPVLNQF

molecular target: HLA-A*24 MHC class I molecule (peptide-receptive after UV-ligand exchange) (human); assay: UV-ligand exchange, anti-b2m ELISA; grade of peptide exchange yield (>=10% = +; >=20% = ++; >=50 = +++; >=75% = ++++)

Binder | peptide exchange yield
B1 | 50 to 75%
B2 | 20 to 50%
B3 | 50 to 75%
B4 | > 75%
B5 | > 75%
B6 | 50 to 75%
B7 | 50 to 75%
B8 | 20 to 50%
B9 | 50 to 75%
B10 | 50 to 75%
B11 | 50 to 75%
B12 | 20 to 50%
B13 | 20 to 50%
B14 | > 75%
B15 | 50 to 75%
B16 | 50 to 75%
B17 | 50 to 75%
B18 | 50 to 75%
B19 | 50 to 75%
B20 | 50 to 75%
B21 | 50 to 75%
B22 | 50 to 75%
B23 | > 75%
B24 | 50 to 75%
B25 | > 75%
